{"source": "paper PMC9579124", "about": "“IKKβ binds NLRP3 providing a shortcut to inflammasome activation for rapid immune responses” (Signal Transduction and Targeted Therapy, 2022)", "binders": {"B1": {"name": "IKKβ used for microscale thermophoresis (enzyme, UniProt O14920 1-756, looked up)", "chain": "MSWSPSLTTQTCGAWEMKERLGTGGFGNVIRWHNQETGEQIAIKQCRQELSPRNRERWCLEIQIMRRLTHPNVVAARDVPEGMQNLAPNDLPLLAMEYCQGGDLRKYLNQFENCCGLREGAILTLLSDIASALRYLHENRIIHRDLKPENIVLQQGEQRLIHKIIDLGYAKELDQGSLCTSFVGTLQYLAPELLEQQKYTVTVDYWSFGTLAFECITGFRPFLPNWQPVQWHSKVRQKSEVDIVVSEDLNGTVKFSSSLPYPNNLNSVLAERLEKWLQLMLMWHPRQRGTDPTYGPNGCFKALDDILNLKLVHILNMVTGTIHTYPVTEDESLQSLKARIQQDTGIPEEDQELLQEAGLALIPDKPATQCISDGKLNEGHTLDMDLVFLFDNSKITYETQISPRPQPESVSCILQEPKRNLAFFQLRKVWGQVWHSIQTLKEDCNRLQQGQRAAMMNLLRNNSCLSKMKNSMASMSQQLKAKLDFFKTSIQIDLEKYSEQTEFGITSDKLLLAWREMEQAVELCGRENEVKLLVERMMALQTDIVDLQRSPMGRKQGGTLDDLEEQARELYRRLREKPRDQRTEGDSQEMVRLLLQAIQSFEKKVRVIYTQLSKTVVCKQKALELLPKVEEVVSLMNEDEKTVVRLQEKRQKELWNLLKIACSKVRGPVSGSPDSMNASRLSQPGQLMSQPSTASNSLPEPAKKSEELVAEAHNLCTLLENAIQDTVREQDQSFTALDWSWLQTEEEEHSCLEQAS", "notes": "IKKβ titrated in MST"}}, "target": "T1, MST-Red-NLRP3 (UniProt Q96P20 1-1036, MST-Red label (position not given))", "T1 construct": "NLRP3 labelled with MST-Red for microscale thermophoresis", "T1 sequence (Q96P20 whole entry)": "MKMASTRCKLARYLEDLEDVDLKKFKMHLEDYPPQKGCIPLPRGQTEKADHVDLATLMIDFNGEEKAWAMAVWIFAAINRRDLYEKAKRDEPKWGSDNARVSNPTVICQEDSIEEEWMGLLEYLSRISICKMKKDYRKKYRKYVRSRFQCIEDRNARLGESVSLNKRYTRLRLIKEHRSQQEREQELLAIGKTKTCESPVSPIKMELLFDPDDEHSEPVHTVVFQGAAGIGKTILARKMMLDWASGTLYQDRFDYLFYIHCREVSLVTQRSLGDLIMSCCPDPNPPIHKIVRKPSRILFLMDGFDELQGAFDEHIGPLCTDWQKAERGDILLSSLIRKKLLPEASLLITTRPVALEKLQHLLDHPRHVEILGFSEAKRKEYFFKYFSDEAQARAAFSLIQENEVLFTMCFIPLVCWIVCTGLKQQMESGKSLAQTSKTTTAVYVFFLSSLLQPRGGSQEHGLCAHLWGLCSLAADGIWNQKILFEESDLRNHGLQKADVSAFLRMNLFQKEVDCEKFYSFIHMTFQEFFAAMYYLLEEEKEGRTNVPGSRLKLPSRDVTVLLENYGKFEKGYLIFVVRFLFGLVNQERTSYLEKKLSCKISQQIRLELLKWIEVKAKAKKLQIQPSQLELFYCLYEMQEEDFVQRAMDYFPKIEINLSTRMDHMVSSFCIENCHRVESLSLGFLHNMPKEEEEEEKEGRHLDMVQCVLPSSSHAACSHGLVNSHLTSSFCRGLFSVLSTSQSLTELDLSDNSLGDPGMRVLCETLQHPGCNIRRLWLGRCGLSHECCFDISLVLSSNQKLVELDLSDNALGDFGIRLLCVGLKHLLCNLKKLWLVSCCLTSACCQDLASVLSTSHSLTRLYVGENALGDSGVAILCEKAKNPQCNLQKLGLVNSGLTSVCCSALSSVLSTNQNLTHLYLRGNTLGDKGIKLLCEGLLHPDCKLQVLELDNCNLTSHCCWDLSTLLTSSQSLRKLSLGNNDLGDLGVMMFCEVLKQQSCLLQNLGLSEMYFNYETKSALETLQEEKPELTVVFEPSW", "assay": "MST; in solution; 50 nM MST-Red-NLRP3 titrated against increasing concentrations of IKKβ; two independent titrations", "settings": "both partners purified", "data": [{"binder": "B1", "values": [{"measurement": "Kd", "value": "1.43 ± 0.35", "unit": "µM"}]}]}
